# In patent US20070037210A1 (VALO HSJ LIMITED PARTNERSHIP, published 2007):
# Non-standard residues stand in square brackets, D forms with d. No end group written: not given here.
# Target: Insulin-like growth factor-1 receptor (IGF-1R) (human, UniProt P08069 31-1367)
# Test: cell-based or functional assay
# Insulin-like growth factor-1 receptor (IGF-1R), sequence (P08069 31-1367): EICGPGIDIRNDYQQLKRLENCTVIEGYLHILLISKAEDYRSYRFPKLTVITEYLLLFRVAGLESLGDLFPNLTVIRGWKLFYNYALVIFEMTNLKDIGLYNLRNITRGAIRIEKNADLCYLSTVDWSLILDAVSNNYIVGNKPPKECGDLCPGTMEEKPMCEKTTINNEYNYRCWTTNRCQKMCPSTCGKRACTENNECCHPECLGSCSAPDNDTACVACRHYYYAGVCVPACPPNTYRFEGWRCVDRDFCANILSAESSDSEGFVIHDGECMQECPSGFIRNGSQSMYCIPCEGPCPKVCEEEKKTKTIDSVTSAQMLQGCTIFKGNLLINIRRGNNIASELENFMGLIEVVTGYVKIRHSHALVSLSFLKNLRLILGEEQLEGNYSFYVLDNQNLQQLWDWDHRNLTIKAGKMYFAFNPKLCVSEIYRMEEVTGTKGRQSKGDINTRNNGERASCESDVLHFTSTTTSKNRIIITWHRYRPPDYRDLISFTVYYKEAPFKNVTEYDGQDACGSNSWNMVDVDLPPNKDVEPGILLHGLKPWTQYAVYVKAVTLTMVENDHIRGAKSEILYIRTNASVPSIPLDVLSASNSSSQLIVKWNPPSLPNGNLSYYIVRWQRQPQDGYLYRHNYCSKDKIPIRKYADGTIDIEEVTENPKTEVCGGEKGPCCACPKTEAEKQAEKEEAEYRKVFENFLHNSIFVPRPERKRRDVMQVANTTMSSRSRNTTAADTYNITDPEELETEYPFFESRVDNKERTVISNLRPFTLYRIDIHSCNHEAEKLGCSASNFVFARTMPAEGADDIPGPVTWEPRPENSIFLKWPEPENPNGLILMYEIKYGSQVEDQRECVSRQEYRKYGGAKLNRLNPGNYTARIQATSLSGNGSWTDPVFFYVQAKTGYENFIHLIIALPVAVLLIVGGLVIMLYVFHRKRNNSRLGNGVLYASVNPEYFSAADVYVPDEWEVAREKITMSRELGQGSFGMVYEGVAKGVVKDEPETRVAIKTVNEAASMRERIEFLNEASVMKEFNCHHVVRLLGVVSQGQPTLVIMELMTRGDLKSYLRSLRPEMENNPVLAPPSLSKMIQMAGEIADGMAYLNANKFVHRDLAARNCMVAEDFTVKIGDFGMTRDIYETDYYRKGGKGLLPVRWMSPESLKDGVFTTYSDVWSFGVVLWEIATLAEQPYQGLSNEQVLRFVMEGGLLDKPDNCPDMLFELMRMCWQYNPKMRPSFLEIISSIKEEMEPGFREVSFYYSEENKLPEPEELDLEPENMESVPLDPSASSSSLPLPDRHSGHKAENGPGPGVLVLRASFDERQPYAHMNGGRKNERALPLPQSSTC
row,Binder,"IGF-1 induced proliferation in A549 carcinoma cells, 3H-thymidine incorporation [nM]"
1,[dS][dL][dF][dV][dP][dR][dP][dE][dR][dK] [APG-201],1000
2,[dE][dS][dD][dV][dL][dH][dF][dT][dS][dT] [APG-202],10
3,[dL][dR][dK][dY][dA][dD]G[dT][dL] [APG-204],10

# Target: T1, Interleukin-1 receptor accessory protein (IL-1RacP), on A549 carcinoma cells (human, UniProt Q9NPH3 21-570)
# T1 sequence (looked up): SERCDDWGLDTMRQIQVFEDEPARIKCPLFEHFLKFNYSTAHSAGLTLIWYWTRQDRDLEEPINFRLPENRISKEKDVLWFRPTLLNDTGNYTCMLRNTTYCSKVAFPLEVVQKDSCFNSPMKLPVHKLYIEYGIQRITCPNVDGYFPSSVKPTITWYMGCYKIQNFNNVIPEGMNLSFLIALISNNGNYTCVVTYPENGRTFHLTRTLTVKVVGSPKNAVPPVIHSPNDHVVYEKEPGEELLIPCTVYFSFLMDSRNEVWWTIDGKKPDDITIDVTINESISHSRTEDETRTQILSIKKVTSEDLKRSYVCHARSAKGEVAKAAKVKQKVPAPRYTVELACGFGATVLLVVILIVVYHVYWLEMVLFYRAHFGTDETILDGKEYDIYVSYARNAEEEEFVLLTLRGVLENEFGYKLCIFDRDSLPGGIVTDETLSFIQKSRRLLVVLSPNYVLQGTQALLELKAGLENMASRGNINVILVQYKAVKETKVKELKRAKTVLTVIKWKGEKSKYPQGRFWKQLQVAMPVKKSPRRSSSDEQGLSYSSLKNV
# Test: cell-based or functional assay
row,Binder,"IL-1 induced proliferation in A549 carcinoma cells, 3H-thymidine incorporation [nM]"
1,APRYTVELA [API-101],1000
2,MKLPVHKLY [API-103],1000
3,VGSPKNAVPPV [API-106],10000
